Substitutions are numbered along the chain they refer to.
T1: RSV F protein of subtype A comprising a polypeptide of SEQ ID NO: 1 and a polypeptide of SEQ ID NO: 2 (RSV subtype A, UniProt P11209 137-513; P03420 26-109)
T1 construct: Stabilized prefusion F trimer made of three F2-F1 heterodimers; Produced recombinantly in CHO cells; also called RSV A; RSVA
T1 chain 1: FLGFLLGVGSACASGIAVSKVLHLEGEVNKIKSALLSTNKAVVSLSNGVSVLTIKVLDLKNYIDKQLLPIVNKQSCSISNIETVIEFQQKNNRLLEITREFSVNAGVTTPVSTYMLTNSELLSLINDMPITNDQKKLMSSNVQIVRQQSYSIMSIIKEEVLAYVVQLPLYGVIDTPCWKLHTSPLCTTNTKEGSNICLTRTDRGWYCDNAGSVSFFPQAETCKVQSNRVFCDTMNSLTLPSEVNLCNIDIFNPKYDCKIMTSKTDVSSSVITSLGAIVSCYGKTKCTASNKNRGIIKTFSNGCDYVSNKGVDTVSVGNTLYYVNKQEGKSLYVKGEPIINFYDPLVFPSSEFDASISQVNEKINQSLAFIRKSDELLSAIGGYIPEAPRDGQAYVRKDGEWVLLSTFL
T1 chain 2: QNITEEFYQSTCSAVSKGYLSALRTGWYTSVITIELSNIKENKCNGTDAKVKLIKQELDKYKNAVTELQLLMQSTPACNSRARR

T2: RSV F protein comprising a polypeptide of SEQ ID NO: 3 and a polypeptide of SEQ ID NO: 4 (RSV subtype B, UniProt O36634 137-513; O36634 26-109)
T2 construct: also called RSV B; RSVB
T2 chain 1: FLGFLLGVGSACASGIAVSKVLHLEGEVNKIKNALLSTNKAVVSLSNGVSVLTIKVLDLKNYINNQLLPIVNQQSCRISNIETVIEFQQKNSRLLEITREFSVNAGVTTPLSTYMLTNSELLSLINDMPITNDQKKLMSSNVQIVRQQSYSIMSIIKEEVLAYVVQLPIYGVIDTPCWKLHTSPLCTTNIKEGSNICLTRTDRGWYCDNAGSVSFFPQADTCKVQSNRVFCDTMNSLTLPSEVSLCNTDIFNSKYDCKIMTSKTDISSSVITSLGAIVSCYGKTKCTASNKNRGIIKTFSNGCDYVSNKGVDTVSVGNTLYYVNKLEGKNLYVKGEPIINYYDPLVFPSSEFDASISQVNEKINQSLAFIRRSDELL
T2 chain 2: T1 chain 2 with K17R, L20F, N42T, A49T, S74N, S80N

B1: AM14 (trimeric prefusion specific antibody of the AM14 ELISA) (antibody, V domains shown)
VH: EVQLVESGGGVVQPGRSLRLSCAASGFSFSHYAMHWVRQAPGKGLEWVAVISYDGENTYYADSVKGRFSISRDNSKNTVSLQMNSLRPEDTALYYCARDRIVDDYYYYGMDVWGQGATVTVSS
VL: DIQMTQSPSSLSASVGDRVTITCQASQDIKKYLNWYHQKPGKVPELLMHDASNLETGVPSRFSGRGSGTDFTLTISSLQPEDIGTYYCQQYDNLPPLTFGGGTKVEIKR
notes: Antibody as used in the AM14 ELISA, detected with an HRP-labeled secondary antibody

How the values were obtained:
[1] = target: RSV A + RSV B bivalent composition (RSV subtype A; RSV subtype B); test: AM14 Fab titration by SEC; High-Slow 2 cycle; 1 M 2-8°C
[2] = target: RSV A + RSV B bivalent composition (RSV subtype A; RSV subtype B); test: AM14 Fab titration by SEC; High-Slow 2 cycle; T0 (second value)
[3] = target: RSV A + RSV B bivalent composition (RSV subtype A; RSV subtype B); test: AM14 Fab titration by SEC; composition of Table 17; Pre-lyo Prep 1, T0
[4] = target: RSV A + RSV B bivalent composition (RSV subtype A; RSV subtype B); test: AM14 Fab titration by SEC; High-Slow 1 cycle; 8 M 25°C
[5] = target: RSV A + RSV B bivalent composition (RSV subtype A; RSV subtype B); test: AM14 Fab titration by SEC; Low-Fast cycle; 3 M 25°C
[6] = target: T1, RSV F protein of subtype A comprising a …; test: AM14 ELISA; F10 (pH 7, 50 mM NaCl, 4.5% sucrose); T0
[7] = target: T2, RSV F protein comprising a polypeptide …; test: AM14 prefusion assay relative to standard; RSV B 480 µg/mL, 2% sucrose + 4% mannitol; post-lyo 2 months at 5°C
[8] = target: T1, RSV F protein of subtype A comprising a …; test: AM14 ELISA; F18 (pH 7, 50 mM NaCl, 3% sucrose + 3% mannitol); T0
[9] = target: T1, RSV F protein of subtype A comprising a …; test: AM14 ELISA; F2 (pH 8, 0 mM NaCl, 0% sucrose); T0
[10] = target: T1, RSV F protein of subtype A comprising a …; test: AM14 ELISA; F17 (pH 7, 50 mM NaCl, 4.5% trehalose); 2 wk 25°C
[11] = target: T1, RSV F protein of subtype A comprising a …; test: AM14 ELISA; F2 (pH 8, 0 mM NaCl, 0% sucrose); 2 wk 25°C
[12] = target: T1, RSV F protein of subtype A comprising a …; test: AM14 ELISA; F13 (pH 7, 100 mM NaCl, 4.5% sucrose); 1 wk 25°C
[13] = target: T1, RSV F protein of subtype A comprising a …; test: AM14 ELISA; F4 (pH 6, 50 mM NaCl, 4.5% sucrose); 1 wk 25°C
[14] = target: T1, RSV F protein of subtype A comprising a …; test: AM14 ELISA; F19 (pH 7, 50 mM NaCl, 3% trehalose + 3% mannitol); T0

| Molecule | Prefusion Content (%) [1] [%] | Prefusion Content (%) [2] [%] | Prefusion Content (%) [3] [%] | Prefusion Content (%) [4] [%] | Prefusion Content (%) [5] [%] | AM14 prefusion content (%), relative to standard [6] [%] | AM14 prefusion content (%), relative to standard [7] [%] | AM14 prefusion content (%), relative to standard [8] [%] | AM14 prefusion content (%), relative to standard [9] [%] | AM14 prefusion content (%), relative to standard [10] [%] | AM14 prefusion content (%), relative to standard [11] [%] | AM14 prefusion content (%), relative to standard [12] [%] | AM14 prefusion content (%), relative to standard [13] [%] | AM14 prefusion content (%), relative to standard [14] [%] |
| --- | --- | --- | --- | --- | --- | --- | --- | --- | --- | --- | --- | --- | --- | --- |
| AM14 Fab | 68 | 73 | 85 | 63 | 66 | – | – | – | – | – | – | – | – | – |
| B1 | – | – | – | – | – | 104 | 101 | 91 | 86 | 64 | 56 | 90 | 59 | 93 |
